Measured values reported in paper PMC3237458 (2011).
Square brackets hold non-standard residues; d marks the D form. Ends that are not written are not given here. * marks the point of attachment. Biotin = O=C1N[C@H]2[C@H](CS[C@H]2CCCCC(=O)*)N1; Ahx = NCCCCCC(=O)O

T1: EphB4 Fc (UniProt P54761 16-539)
T1 chain: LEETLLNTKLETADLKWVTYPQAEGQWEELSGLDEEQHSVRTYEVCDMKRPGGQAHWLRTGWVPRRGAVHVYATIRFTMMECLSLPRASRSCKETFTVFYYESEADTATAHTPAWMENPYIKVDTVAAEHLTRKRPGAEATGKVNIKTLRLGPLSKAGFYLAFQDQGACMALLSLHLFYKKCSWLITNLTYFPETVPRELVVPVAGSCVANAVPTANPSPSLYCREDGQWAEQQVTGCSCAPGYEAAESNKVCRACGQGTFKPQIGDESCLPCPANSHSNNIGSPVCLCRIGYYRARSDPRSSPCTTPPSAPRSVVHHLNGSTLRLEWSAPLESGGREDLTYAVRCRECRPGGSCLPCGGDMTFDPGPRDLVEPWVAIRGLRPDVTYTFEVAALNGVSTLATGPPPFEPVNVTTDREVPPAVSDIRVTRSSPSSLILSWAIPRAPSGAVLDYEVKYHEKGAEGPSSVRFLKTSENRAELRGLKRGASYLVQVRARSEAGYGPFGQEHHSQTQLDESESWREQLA

T2: mouse EphB4 AP (mouse, UniProt P54761 16-539)
T2 chain: T1 chain

B1: PEGylated TNYL-RAW (PEG-TNYL-RAW) (peptide)
chain: {PEG 40 kDa branched (NHS-glutaryl)}-TNYLFSPNGPIARAW
B2: TNYL-RAW fused with human Fc (TNYL-RAW-Fc) (Fc fusion)
chain: TNYLFSPNGPIARAWGSGSK
B3: TNYL-RAW peptide (peptide)
chain: TNYLFSPNGPIARAW
B4: biotinylated TNYL-RAW peptide (peptide)
peptide: TNYLFSPNGPIARAW[Ahx]K(Biotin)

Key:
[1] = target: T1, EphB4 Fc; experiment: ELISA
[2] = target: T1, EphB4 Fc; experiment: ELISA; competition with ephrin-B2 AP
[3] = target: T2, mouse EphB4 AP; experiment: ELISA

| Binder | Kd [1] [nM] | IC50 [2] [nM] | Kd [3] [nM] |
| --- | --- | --- | --- |
| B1 | 2.9 | 24 |  |
| B2 |  | 6.5 | 4.7 |
| B3 |  | 13 |  |
| B4 | 2.7 |  | 11 |
